Measurements published in paper PMC10277290.
Positions count from the first letter of the chain named. Names may count otherwise.

B1: MdhBs (NAD+-dependent methanol dehydrogenase) (Geobacillus stearothermophilus) (protein)
chain: MKAAVVNEFKKALEIKEVERPKLEEGEVLVKIEACGVCHTDLHAAHGDWPIKPKLPLIPGHEGVGIVVEVAKGVKSIKVGDRVGIPWLYSACGECEYCLTGQETLCPHQLNGGYSVDGGYAEYCKAPADYVAKIPDNLDPVEVAPILCAGVTTYKALKVSGARPGEWVAIYGIGGLGHIALQYAKAMGLNVVAVDISDEKSKLAKDLGADIAINGLKEDPVKAIHDQVGGVHAAISVAVNKKAFEQAYQSVKRGGTLVVVGLPNADLPIPIFDTVLNGVSVKGSIVGTRKDMQEALDFAARGKVRPIVETAELEEINEVFERMEKGKINGRIVLKLKED
B2: MdhBs (NAD+-dependent methanol dehydrogenase) (Geobacillus stearothermophilus; K72T/T153P) (protein)
chain: B1 chain with K72T, T153P
B3: MdhBs (NAD+-dependent methanol dehydrogenase) (Geobacillus stearothermophilus; E309K/N214D) (protein)
chain: B1 chain with N214D, E309K

substrate: CO; assay: purified protein; format: biochemical, Geobacillus stearothermophilus; details: NAD+ 0.5 mM, Mg2+ 5 mM, PBS pH 7.4, 37 °C

Row | Protein | Km [mM] | Vmax [µmol/min/mg] | kcat [s⁻¹] | kcat/Km [M⁻¹ s⁻¹]
1 | B1 | 30.03 ± 4.63 | 0.0115 | 0.007 ± 0.001 | 0.233
2 | B2 | 9.84 ± 0.67 | 0.0288 | 0.015 ± 0.001 | 1.52
3 | B3 | 18.19 ± 3.27 | 0.0238 | 0.013 ± 0.001 | 0.715
